Our source for the binding signal values is publication PMC11417369, “DNA sequence and chromatin differentiate sequence-specific transcription factor binding in the human malaria parasite Plasmodium falciparum”.

T1: SIP2 D1 (Plasmodium falciparum, UniProt C6KSN9 177-235)
T1 sequence: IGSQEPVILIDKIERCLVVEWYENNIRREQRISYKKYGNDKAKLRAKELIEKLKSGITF

B1: GTGCAC_site10015 (dsDNA)
DNA 1: TATAATGGTTCTGGTGTGCACCATGACAGAATCAAG
DNA 2: CTTGATTCTGTCATGGTGCACACCAGAACCATTATA
B2: GTGCAC_site9660 (dsDNA)
DNA 1: CTTTTTTTTTTGGGGGTGCATGCAAGACATATATTT
DNA 2: AAATATATGTCTTGCATGCACCCCCAAAAAAAAAAG
B3: GTGCAC_site9754 (dsDNA)
DNA 1: ATATAATATTTTAGAGTGCACCGATAACAATAAATA
DNA 2: TATTTATTGTTATCGGTGCACTCTAAAATATTATAT
B4: GTGCAC_site9733 (dsDNA)
DNA 1: TAAAAATTAAAAAGGGTGCAAAAAAAAAAAAAAAAA
DNA 2: TTTTTTTTTTTTTTTTTGCACCCTTTTTAATTTTTA
B5: GTGCAC_site10641 (dsDNA)
DNA 1: ATATAATAACAAAAGGTGCGCATTAAGACAAAAAAA
DNA 2: TTTTTTTGTCTTAATGCGCACCTTTTGTTATTATAT
B6: GTGCAC_site10200 (dsDNA)
DNA 1: CTCATTTTTGTACAGGTGCACTTATCGTTACACTAT
DNA 2: ATAGTGTAACGATAAGTGCACCTGTACAAAAATGAG
B7: GTGCAC_site10198 (dsDNA)
DNA 1: TTTTTAACGTATAAGGTGCACTGTATATGGTACTCA
DNA 2: TGAGTACCATATACAGTGCACCTTATACGTTAAAAA
B8: GTGCAC_site10674 (dsDNA)
DNA 1: AAAAAAAAAAAAAAGGTGCAAATAAATTAACCTTAT
DNA 2: ATAAGGTTAATTTATTTGCACCTTTTTTTTTTTTTT
B9: GTGCAC_site9950 (dsDNA)
DNA 1: AAAAAAAAAAAAATGGTGCAACTTTGTTAAAGGAAA
DNA 2: TTTCCTTTAACAAAGTTGCACCATTTTTTTTTTTTT
B10: GTGCAC_site10328 (dsDNA)
DNA 1: AAATTCTGCATCGAGGTGCGCCATAAAAATTGTGGT
DNA 2: ACCACAATTTTTATGGCGCACCTCGATGCAGAATTT
B11: GTGCAC_site10679 (dsDNA)
DNA 1: AGCATATTATTTTAGGTGCACTTGAAATGTGTTAAC
DNA 2: GTTAACACATTTCAAGTGCACCTAAAATAATATGCT
B12: GTGCAC_site10727 (dsDNA)
DNA 1: ATAGAAGGCAACTTGGTGCACAAAAAAAAAAATAAT
DNA 2: ATTATTTTTTTTTTTGTGCACCAAGTTGCCTTCTAT
B13: GTGCAC_site10577 (dsDNA)
DNA 1: TTTTTTTTCTATGTGGTGCACATTATTTTTTTTTTT
DNA 2: AAAAAAAAAAATAATGTGCACCACATAGAAAAAAAA
B14: GTGCAC_site10429 (dsDNA)
DNA 1: TATAAGTGCTCAACGGTGCATTTATAGAAGTTAAAC
DNA 2: GTTTAACTTCTATAAATGCACCGTTGAGCACTTATA
B15: GTGCAC_site9532 (dsDNA)
DNA 1: ATATATATATTAAAGGTGCACAAATAAATATATACA
DNA 2: TGTATATATTTATTTGTGCACCTTTAATATATATAT
B16: GTGCAC_site10082 (dsDNA)
DNA 1: ATAATAACTTGTAAGGTGCATTTTATGTTTTCTTAA
DNA 2: TTAAGAAAACATAAAATGCACCTTACAAGTTATTAT
B17: GTGCAC_site9401 (dsDNA)
DNA 1: AAAAAAAAAAAAAAGGTGCATACTTTGAATTAATAT
DNA 2: ATATTAATTCAAAGTATGCACCTTTTTTTTTTTTTT
B18: GTGCAC_site9853 (dsDNA)
DNA 1: ACTATTTAATATAGGGTGCAACTTTTTCAAGTAAAT
DNA 2: ATTTACTTGAAAAAGTTGCACCCTATATTAAATAGT
B19: GTGCAC_site9650 (dsDNA)
DNA 1: CAATTTGGTGTACAGGTGCACATGCCTCACGATAAA
DNA 2: TTTATCGTGAGGCATGTGCACCTGTACACCAAATTG
B20: GTGCAC_site9943 (dsDNA)
DNA 1: AATTAATGGTTAAAGGTGCACAATACATATATTACA
DNA 2: TGTAATATATGTATTGTGCACCTTTAACCATTAATT
B21: GTGCAC_site10448 (dsDNA)
DNA 1: TATTAATTTAAATGGGTGCAAAACCTATATAAATAT
DNA 2: ATATTTATATAGGTTTTGCACCCATTTAAATTAATA
B22: GTGCAC_site9503 (dsDNA)
DNA 1: ATCTATTTGTAAAGGGTGCGCATATCAATAAAAAAT
DNA 2: ATTTTTTATTGATATGCGCACCCTTTACAAATAGAT
B23: GTGCAC_site10597 (dsDNA)
DNA 1: TGAACTCAACAAAGGGTGCATAACAAAAATAGACGT
DNA 2: ACGTCTATTTTTGTTATGCACCCTTTGTTGAGTTCA
B24: GTGCAC_site10229 (dsDNA)
DNA 1: CACATTAATTTTTGGGTGCACTTGGGAAATTTTGGT
DNA 2: ACCAAAATTTCCCAAGTGCACCCAAAAATTAATGTG
B25: GTGCAC_site9895 (dsDNA)
DNA 1: ATTGAATTCCAACTGGTGCACCAGTAAGATTGAAAA
DNA 2: TTTTCAATCTTACTGGTGCACCAGTTGGAATTCAAT
B26: GTGCAC_site10518 (dsDNA)
DNA 1: ATATATTTCAAAGGGGTGCAGGCATATTTAAGCAAA
DNA 2: TTTGCTTAAATATGCCTGCACCCCTTTGAAATATAT
B27: GTGCAC_site10197 (dsDNA)
DNA 1: TCCATATGCAAACTGGTGCACAAGTAGCTTTTATAT
DNA 2: ATATAAAAGCTACTTGTGCACCAGTTTGCATATGGA
B28: GTGCAC_site10039 (dsDNA)
DNA 1: CAGTAGTTTTTATGGGTGCAAAACATATATATAACA
DNA 2: TGTTATATATATGTTTTGCACCCATAAAAACTACTG
B29: GTGCAC_site9525 (dsDNA)
DNA 1: CTGCGTTTAATATGCGTGCACCTTGGTTTTATATCT
DNA 2: AGATATAAAACCAAGGTGCACGCATATTAAACGCAG
B30: GTGCAC_site9881 (dsDNA)
DNA 1: TCCGCATGTACATGGGTGCACATAACACCCATTTAA
DNA 2: TTAAATGGGTGTTATGTGCACCCATGTACATGCGGA
B31: GTGCAC_site9760 (dsDNA)
DNA 1: ATAATTATTCTTATGGTGCACTGAATATACATGTTG
DNA 2: CAACATGTATATTCAGTGCACCATAAGAATAATTAT
B32: GTGCAC_site9513 (dsDNA)
DNA 1: TATATATGTATATGTGTGCACCTTATTTCTTTTATT
DNA 2: AATAAAAGAAATAAGGTGCACACATATACATATATA
B33: GTGCAC_site10066 (dsDNA)
DNA 1: TAAACATATAGAGGGGTGCAAAGAATTGTAAAATTT
DNA 2: AAATTTTACAATTCTTTGCACCCCTCTATATGTTTA
B34: GTGCAC_site10454 (dsDNA)
DNA 1: TTTTTAATATATTAGGTGCACAATAATACACTTTAT
DNA 2: ATAAAGTGTATTATTGTGCACCTAATATATTAAAAA
B35: GTGCAC_site10547 (dsDNA)
DNA 1: CGTTGGTATTAAAAGGTGCAATGAAATAATATATTA
DNA 2: TAATATATTATTTCATTGCACCTTTTAATACCAACG
B36: GTGCAC_site10759 (dsDNA)
DNA 1: ATTAAATTTCCTTGAGTGCACATTTTGTTAAAATAT
DNA 2: ATATTTTAACAAAATGTGCACTCAAGGAAATTTAAT
B37: GTGCAC_site10740 (dsDNA)
DNA 1: AAAAATTAACAAAAGGTGCAATTTATTTATTAACGG
DNA 2: CCGTTAATAAATAAATTGCACCTTTTGTTAATTTTT
B38: GTGCAC_site9862 (dsDNA)
DNA 1: ACACATACACATTAGGTGCACATAATTCAATATTAC
DNA 2: GTAATATTGAATTATGTGCACCTAATGTGTATGTGT
B39: GTGCAC_site9600 (dsDNA)
DNA 1: AACCTTACACAAGGGGTGCAATATTATTTCGATAAA
DNA 2: TTTATCGAAATAATATTGCACCCCTTGTGTAAGGTT
B40: GTGCAC_site10519 (dsDNA)
DNA 1: CATGCCTTTAAAAAGGTGCAAACATTTTCACAAACA
DNA 2: TGTTTGTGAAAATGTTTGCACCTTTTTAAAGGCATG
B41: GTGCAC_site10403 (dsDNA)
DNA 1: CTGTAAAATGTGATGGTGCATATTAATTTAGTTGTA
DNA 2: TACAACTAAATTAATATGCACCATCACATTTTACAG

The target in this data set is T1, SIP2 D1. Put plainly: gcPBM; about 25 ug protein; PBS, 1% milk, 0.2 mg/ml BSA, salmon testes DNA, 0.03% Triton X-100. To be noted: tags: N-terminal GST (pGEX-4T-1), kept; label: surface-attached array probe.
With B1, the binding signal is 11.4 ln median PBM intensity, better of two orientations.
With B2, the binding signal was 11.5 ln median PBM intensity, better of two orientations.
Regarding B3, the binding signal was 11.4 ln median PBM intensity, better of two orientations.
Take B4: the binding signal was 11.6 ln median PBM intensity, better of two orientations.
On to B5, for which the binding signal is 11.5 ln median PBM intensity, better of two orientations.
B6: the binding signal was 11.5 ln median PBM intensity, better of two orientations.
B7: the binding signal is 11.5 ln median PBM intensity, better of two orientations.
For B8 the value was 11.4 ln median PBM intensity, better of two orientations; for B9, 11.6 ln median PBM intensity, better of two orientations.
As to B10, the binding signal was 10.9 ln median PBM intensity, better of two orientations.
As for B11, the binding signal is 11.5 ln median PBM intensity, better of two orientations.
For B12 the value was 11.4 ln median PBM intensity, better of two orientations; for B13, 11.4 ln median PBM intensity, better of two orientations.
For the molecule B14, the binding signal was 10.8 ln median PBM intensity, better of two orientations.
For B15 the value was 11.3 ln median PBM intensity, better of two orientations; for B16, 10.8 ln median PBM intensity, better of two orientations; for B17, 11.7 ln median PBM intensity, better of two orientations.
B18: the binding signal is 11.5 ln median PBM intensity, better of two orientations.
In the case of B19 it was 11.3 ln median PBM intensity, better of two orientations.
In the case of B20, the binding signal is 11.6 ln median PBM intensity, better of two orientations.
As to B21, the binding signal is 11.1 ln median PBM intensity, better of two orientations.
For B22 the value was 11.6 ln median PBM intensity, better of two orientations.
For B23, the binding signal is 11.6 ln median PBM intensity, better of two orientations.
On to B24, for which the binding signal was 11.6 ln median PBM intensity, better of two orientations.
For the molecule B25, the binding signal is 11.6 ln median PBM intensity, better of two orientations.
As to B26, the binding signal is 11.6 ln median PBM intensity, better of two orientations.
In the case of B27 it was 11 ln median PBM intensity, better of two orientations; in that of B28, 11.3 ln median PBM intensity, better of two orientations; in that of B29, 11.3 ln median PBM intensity, better of two orientations.
For B30 the value was 11.6 ln median PBM intensity, better of two orientations.
In the case of B31 it was 11 ln median PBM intensity, better of two orientations; in that of B32, 11.7 ln median PBM intensity, better of two orientations; in that of B33, 10.8 ln median PBM intensity, better of two orientations.
Take B34: the binding signal was 11.3 ln median PBM intensity, better of two orientations.
For the molecule B35, the binding signal is 10.7 ln median PBM intensity, better of two orientations.
For B36 the value was 10.7 ln median PBM intensity, better of two orientations; for B37, 10.9 ln median PBM intensity, better of two orientations; for B38, 11.3 ln median PBM intensity, better of two orientations.
For the molecule B39, the binding signal is 11.5 ln median PBM intensity, better of two orientations.
Consider B40, for which the binding signal was 11.4 ln median PBM intensity, better of two orientations.
For B41 the value was 10.8 ln median PBM intensity, better of two orientations.
